# Test results taken from a protein production outcome set (Wang et al. 2014).
# Experiment: label from the status in PepcDB records
row,Sequence,protein production
1,MKGKEIMEIKRILVSRTDKIGDLVLSIPSFFMLKKMYPNAELVVIVRKYNVDIVKNLPYIDRIVIIDEYSKAELLEKIAYFKADVFIALYNDSYIASLARASKAKIKIGPISKLSSFFTYNKGVLQKRSLSLKNEGQYNLDLVTKLDRKRFAILYELNTKLILTDENKKVADVYFKENSIEGKTLVVNPFIGGSAKNITDEQYISILKKIKEKMPDLNIIITSYTTDEERTEKLCKDIGKDKIFAFSNGASILNTASIIDRADVYFGASTGPTHIAGALGKKIVAIYPHKKTQSPTRWGVLGNSNVRYIIPDENNPNEDYKNPYFDNFTKDMEDKVVKAILEALK,failed
2,MTSLSQFEPLFLEFMQQEMQVDAAHDIEHVKRVVKTAKQLCDEENADIAIVLPAAYLHDCFTYPKDHPNRKQSSAIAAKKAIAYLESIQYPQHYHDAIAHAIEAHSFSANIRPNTLEAQIVQDADRLDALGAIGVTRCIQVSTHFNAQLYNDNDMFAKERELNDKQFTVDHFQTKLFKIADTMNTESAKLEANKRKAFMQTYLKQLHDEVTALEHHHHHH,not failed
3,SEAWEYFHLAPARAGHHPNQYATCRLCGRQVSRGPGVNVGTTALWKHLKSMHREELEKSGHGQ,not failed
4,MFTYLLITIFGIGLLIWAFWYDKNMFKPEKKKNGKMTKPLHTRWYFWVLVVFSIVGGIGNMLGLGADDDDSDNNSAQTVQTSKKAKQSKAENHSKAKKSGTKKSKEISDEEKEAAALLLLRKNFKGKAKVWYDSDNKAFMIQPTGTEFKEELLDIIATQDTSDWKDLTDSMDSLSRSLYKNLQLADFVSIVNPDNPDKVLYSSLNGHSEYDFLKDDE,failed
5,MLALKSSELEGIATSLTAVAGALHESNTDRLQSWQQLETMTSASSLIQGFIKLVDYNRPTVNIVEQMHKTASTLFNTADFLRTLEGYVDVLEKQADKSITLTVMLRYIASLSSLLDLMCAREINALCTAITPEPLKHLGDFGTLPASAIHEFHLVNAPPEIRALAEAHPDMQILEAGDGSLVASFGDIDRATTVTTIVAGVGSSNPEGWNTYVDRARTVSASTGSATVLWLGYQAPASIPAAVSGAAANRAAADLQRFQAALQSRNPHQRKVVMGYSYGSTVVGKAASSGELSADALVLVGSPGAGVSHSSQLGAPVYAVTGSADPIGFAGTQYDGIHGTDPTAALFGATVWDSPSTHSGYWNDQEFLGNVAEVVRGK,failed
6,MIKLIKNEIIKMLFKKKVILIMAIILIEACAFAYGQNNKYQRTVRSYVNSNSSSYNWRPLINQQIQDLQSKLKYRTVKKSEEKSINIQMEQYRYYLKNNINPITPTAGNFTSNIMAQSVTLLLPLLVIILASDIVSSEFSSRTIKVLLTRAVPRWKILLSKYIALIIMSAFVVFLTTIIPLIVSLVVFKRTGFGEPVITGYKVIAGKVDASNVVGIYQWYYILIMSALSFFISIVVGSISFMISIFVKSIGASIGIMMSALIGGNILSVFLDDIEAAKYFFVVNLNLPQYLTGKMRIVSGMNFDFSIMVLLIWSMASIVISFYVFNKKDVLV,failed
7,KYNPVVNPERALERRNWILGRMLQLGYINQTQYQQAVAEPINLDMPDRGVSNRYPYIGEMVRAELVEKFGEQAVDSGY,failed
8,MALVDDGSQPLVSVIIASYNHEKYIEASIASVAAQTYRNVELLVVDDGSSDGSVELLRGLQAKYGFDLRVQQNQGLSRTLNEAITRARGNLIVPFGSDDIMLPQRLEKQVAHMWDKPEVGICAGNIEIIDSNGRVMPGKEQRKRDLPFRRLDFDDLFLDRKPGPMAPTLMFRREALEKVGGFDPDIRLEDVYIELAVTKAGYVIDILGEVLAQYRKHPTNTYKNARFMVDNVFKTYSQFSDHPDYEQVIMRFRNSMFLKCSNRDKVLARELLSGLPLKYWNEKTFRGIARLFFS,failed
9,MFPNSILGRPPFTPTHQQHNNFFALSPTLYSHQQLIDAQFNFQNVDLSRAVSLQPLTYGTVSPIQTSTSPLFRGRKRISDEKAFRLDGKRQRFHSPHQEPTIINQLVPLSGDRRYSMPPLFHTHYVPEIVRCVPPLREIPLLEPREITLPEAKDKLSQQILELFETCQQQASDLKKKELCRAQLQREIQLLFPQSRLFLVGSSLNGFGARSSDGDLCLVVKEEPCFFQVNQKTEARHILTLVHKHFCTRLSGYIERPQLIRAKVPIVKFRDKVSCVEFDLNVNNTVGIRNTFLLRTYAYLENRVRPLVLVIKKWASHHEINDASRGTLSSYSLVLMVLHYLQTLPEPILPSLQKIYPESFSTSVQLHLVHHAPCNVPPYLSKNESSLGDLLLGFLKYYATEFDWNTQMISVREAKAIPRPDDMEWRNKYICVEEPFDGTNTARAVHEKQKFDMIKDQFLKSWQRLKNKRDLNSVLPLRAATLKR,failed
10,GLQAEWMQMSSLGTVDAPNFIVGNPWDDKLIFKLLSGLSKPVSSYPNTFEWQCKLPAIKPKTEFQLGSKLVYVHHLLGEGAFAQVYEATQGDLNDAKNKQKFVLKVQKPANPWEFYIGTQLMERLKPSMQHMFMKFYSAHLFQNGSVLVGELYSYGTLLNAINLYKNTPEKVMPQGLVISFAMRMLYMIEQVHDCEIIHGDIKPDNFILGNGFLEQDDEDDLSAGLALIDLGQSIDMKLFPKGTIFTAKCETSGFQCVEMLSNKPWNYQIDYFGVAATVYCMLFGTYMKVKNEGGECKPEGLFRRLPHLDMWNEFFHVMLNIPDCHHLPSLDLLRQKLKKVFQQHYTNKIRALRNRLIVLLLECKRSRK,failed
11,AIAAQKISEAHEHIAKAEKYLKTSFMKWKPDYDSAASEYAKAAVAFKNAKQLEQAKDAYLQEAEAHANNRSLFHAAKAFEQAGMMLKDLQRMPEAVQYIEKASVMYVENGTPDTAAMALDRAGKLMEPLDLSKAVHLYQQAAAVFENEERLRQAAELIGKASRLLVRQQKFDEAAASLQKEKSMYKEMENYPTCYKKCIAQVLVQLHRADYVAAQKCVRESYSIPGFSGSEDCAALEDLLQAYDEQDEEQLLRVCRSPLVTYMDNDYAKLAISLKVPGGGGGKKKPSASASAQPQEEEDDEYAGGLC,failed
12,KNFNPPTRRNWESNYFGMPLQDLVTAEKPIPLFVEKCVEFIEDTGLCTEGLYRVSGNKTDQDNIQKQFDQDHNINLVSMEVTVNAVAGALKAFFADLPDPLIPYSLHPELLEAAKIPDKTERLHALKEIVKKFHPVNYDVFRYVITHLNRVSQQHKINLMTADNLSICFWPTLMRPDFENREFLSTTKIHQSVVETFIQQCQFFFYNGEIVE,not failed
13,MNHHHHNHHGEAGFKRKVDYLDRPERSEVLAPEEFLQRIPMEKTASILDLGAGTGFLTIPAAKKVENTVFALDLDTKMLELIETKAKTAELANVKTLEASMDDIPLETSSVDVVLASLVLHEADSLADVLREVSRVVKTGGYFASLEFDTKGTDLKGPPMEIQISAEKLKEELAGFGFEVVQNWELDEGMYVSIAEKKE,failed
14,MTKKIVLAGGTGFIGQYLQQRFEENGDEVVIISRRAPHVSWDDSEAVREALEGADMLVNLAGKSVNCRYNEQNKKAILQSRIDTTNILGEAVLACERPPKLWLNSSTATIYRHAEDRAMTEANGELGSGFSENVAKAWEEEFFSFQLPNTRQAALRISIVLGGDGGALTPYRYLTKFGLGGKQGSGKQMVSWIHVEDVFRVIRFIEEQEALEGVINCTSPQPVSNKVLTTAIRRAMNVKVGLPATAWMLEIGTFLLRTESELILKSRWVLPERLLQAGFTFQYETIDDALSEILVQSKSASHLLEHHHHHH,failed
15,MIRLATKNDLLSITQLVKEAKQIMEEFNNNQWDDEYPAKEHFEEDIENKTLYVLDVDHTIYGFIVIDQNQSEWYDDIDWPVNRNGAYVIHRLAGSKQYKGAATELFQFAIDLANEHDIHVILTDTFALNKPAQGLFEKFGFTKVDEIEIDYHPFDRGAPFYAYYKNI,failed
16,MKTLCTHSLPKEKMPYLLRSGEGERYLFGRQVATVMANGRSTGDLFEIVLLSGGKGDAFPLHVHKDTHEGILVLDGKLELTLDGERYLLISGDYANIPAGTPHSYRMQSHRTRLVSYTMKGNVAHLYSVIGNPYDHAEHPPYASEEVSNERFAEAAAVADIVFLDEAKPACSAKLAELTELPDGAVPYVLESGEGDRLLTGDQLHRIVAAQKNTDGQFIVVSSEGPKGDRIVDHYHEYHTETFYCLEGQMTMWTDGQEIQLNPGDFLHVPANTVHSYRLDSHYTKMVGVLVPGLFEPFFRTLGDPYEGHIFPCEPQALRFDRILQNIEALDLKVMKP,not failed
17,MKKFSAIFGLLSVIFVIMAISQVSGLSGAITPPKIDIMVNASNGLPQDINSIIYVKNPNSFPVKVEMVTTGDLNNSKKVEVKIMKNNFTLKPGETVGVNITFTVKEKDNYEGDILTKISPVDYGDDKKGVNLKASVVLPTKVAIMVVGNEIHTKELVITAVLIISILGLGAMLIRRHL,failed
18,MDMEQRERWATKIGLILAMAGNAIGLGNFVRFPTQVAGNGGGAFMVPYFLALFLLGIPVMWVEWVQGRYGGKYGHGTLGPTFYLMARESLKPRSALWFGLIGGALAFATTTLLNSYYLHLIGWSAAYSWFSITGAYYGKNTAQFFSQYLSNHGLVFLFWGITVVLLGIAVGQGVSKGIERWVKVMMPLLYVFAIILVIYVFALGSPLGQPQWSTIKGFEFIWSPNWGYLKDHLWKVMLAASGQIFFTLSLGMGIIQNYASYLGPKDDVALSGLATVSLNEFAEVVLGGSIAVPLAVAYAPKIVPPDVLAKGSDAALAWISENFGLGFSYTSLPNIFVQMGTAGRFFGALWFLLLWFAGFTSAIAMYNYLTALLEEDLGIKRSVGTWVVFIIYFLLGIPVVYINGYLDQVDAWISFQLALLALFDIIVSVWLFKPDNFWRELHEGALINVPEFYKWITVIIAPIFIALPLFGTFTDLVSKTLGWPAKIAILTMLTIGAIEAYYAIKKKYGEELEKNEVIIKV,failed
19,MKKWWMLTICIVFIVAAVVPVRAAAASHPLFANVIVVFQQQVDEQAVKTLHGNVTKRFEVIPAVAATLPVTAVELLRRWPGVDYVQQDTTVAIDGQITDWGVEKVKAPVMHTHGVTGKGVKIAILDTGVDLKHPDLRVVGGACVLSYCPNSYQDDNGHGTHVAGIIAAKDNDIGTVGVAPNASIYAVKVLDRYGEGNVSDILSGIEWAMKHRVDIINLSLAAPEDAPALKAAIRKAYESGILVVAAAGNNGYANGTGDTVEYPAKYDSAIAVSAVNKENVRLPYSATGPAIEVAAPGEGVYSTVPVALDGDGRRDGYTHMSGTSMAAPFVTGVLALYKQQYPERTNIELRQMLRDRALDLGTPGRDPWYGYGLVRAVSNQPPELKVKLLSVKKGEVAFSVTLSGSAVKGYRVYRNGKQIETLQTAGTYTDYVVKGTYQYEFASIRNDGAESALTAPITVNVPDPYYKDVSASAWYMPEIAYLSSRGIVSGYNNGTIQPYNTITRAEVAVMLGRALHLDATKRATVFRDVASSDFASGYIQSAYERGLINGYPDGTFRPQQPITRAETAIILSRAYPLPGGSSMMFKDVTARVTGHEAIAKLAAARIAEGYPDGTFRPYQFVKRLEFFVFTARADNERFR,failed
20,MDFNPIDLILHLDTYLAMLVSNYGVWIYAILFLVIFCETGLVVTPFLPGDSLLFIAGAICATGGMDPWLLGGLLMVAAITGDSTNYVIGRTLGKRLFSNPDSKVFRRDYLDRTHEFYERHGGKTVTLARFLPIVRTFAPFVAGMAKMHYPRFVMFSVVGTVAWVGGLVTLGYFFGNVPFIKKNLSLLVIGIILLSLLPMILGFIRHRLQASAAKQAKAQSD,failed
21,MEEEMKKKVSRGELGGEAQNCPRCESPNTKFCYYNNYSLSQPRYFCKSCRRYWTKGGTLRNVPVGGGCRRNKRSSSSAFSKNNNNKSINFHTDPLQNPLITGMPPSSFGYDHSIDLNLAFATLQKHHLSSQATTPSFGFGGDLSIYGNSTNDVGIFGGQNGTYNNSLCYGFMSGNGNNNQNEIKMASTLGMSLEGNERKQENVNNNNNNSENPSKVFWGFPWQMTGDSAGVVPEIDPGRESWNGMVSSWNNGLLNTPLV,not failed
22,MPPIIKRRVMRKIIIASQNPAKVNAVRSAFSTVFPDQEWEFIGVSVPSEVADQPMSDEETKQGALNRVRNAKQRHPGAEYYVGLEAGIEENKTFAWMIVESDQQRGESRSACLMLPPLVLERLRQAKELGDVMDEVFGTENIKQKGGAIGLLTRHHLTRSTVYHQALILALIPFINPEHYPSA,not failed
